Legend:
Conditions in all cases: both partners purified
[1] = target: T1, H1N1 A/Solomon Islands/3/2006 HA protein (Influenza A virus A/Solomon …, strain); assay: cryo-EM structure
T1 construct: source: purified

[2] = target: A/Brisbane/59/2007 H1 hemagglutinin, recombinant (Influenza A virus A/Brisbane/59/2007 …, UniProt D5F1Q8, strain, biotin on the AviTag); assay: ELISA
[3] = target: A/New Caledonia/20/1999 (NC99) H1 hemagglutinin, recombinant (Influenza A virus A/New …, UniProt Q6WG00, strain, biotin on the AviTag); assay: ELISA
[4] = target: A/USSR/90/1977 H1 hemagglutinin, recombinant (Influenza A virus A/USSR/90/1977 (H1N1), UniProt P03453, strain, biotin on the AviTag); assay: ELISA

B1: NI04359_d30_245 Fab (Fab, V domains shown)
VH: EVQLVESGGGLFKPGGSLRLSCAASGFTFRNAWMSWVRQAPGKGLEWVGRIKSKADGGTTDYAASVKGRFTISRDDSKNTLYLHMNSLKTEDTAVYYCTTPPEIAVVAAAMRDYYYGLDVWGPGTTVTVSS
VL: SYELTQPVSVSVALGQTARITCGGNNIGSKSLHWYQQKPGQAPVLVIYRDNNRPSGIPERFSGSNSGNTATLTISRAQAGDEADYYCQVWDSSTYVVFGGGTRLTVL
notes: also called mAb NI04359_d30_245; source: Expi293F, co-transfected, Fab purified from supernatant (Ni-NTA agarose)
Q: Does B1 bind [1]?
A: binds

B2: NI01056_d30_604 Fab (Fab, V domains shown)
VH: QVQLQESGPGLVKPSETLSLTCTVSGGSISNYYWTWIRQPPGKGLEWIGYMYDSGNTKYNSSLRSRLTMSLDTSKNQFSLKMRSVTAADTAVYYCARGGGVRNLLGLRFVSDYMDVWGKGTTVTVSS
VL: DIQMTQSPSTLSASVGDRVTITCRASQSISSWLAWYQQKPGKAPHLLIYQASSLETGVPSRFSGSGSGTEFTLTISSLQPDDFATYYCQQYNTYSSTFGQGTQLQIK
notes: also called mAb NI01056_d30_604; source: Expi293F, co-transfected, Fab purified from supernatant (Ni-NTA agarose)
Q: Does B2 bind [1]?
A: binds

B3: NI06063_d30_103 mAb (human IgG1) (antibody, V domains shown)
VH: QVHLVESGGGVVQPGRSLRLSCAASGFTFSNYGMHWVRQAPGKGLEWVAFISYDGSNEYYADSVKGRFTISRDYSKYTLYLQMNSLRAEDTAVYYCAKDGQWLVRGAFDFWGQGTMVTVSS
VL: QSALTQPASVSGSPGQSITISCSGTGSDVGSSHLVSWYQHHPGKAPKLMIFEVSKRPLGVSNRFSGSKSGNTASLTISGLQTEDEADYYCCSYAGGRGVFGGGTKLTVL
notes: IgG1; also called mAb d30_103
Q: Which results are given for B3?
A: binding result [2]: no binding; binding result [3]: no binding; binding result [4]: no binding
